These results are taken from paper PMC7969007, “The CRISPR ancillary effector Can2 is a dual-specificity nuclease potentiating type III CRISPR defence” (Nucleic Acids Research, 2021).

The target of experiment [1] is Can2 (CRISPR ancillary nuclease 2) from Sulfobacillus thermosulfidooxidans, selenomethionine labelled (Sulfobacillus thermosulfidooxidans). In words: crystal structure; SeMet SthCan2 at 8 mg/ml co-crystallised with cA4 at 1:1 protein:cA4; 20% (w/v) PEG 3350, 0.2 M ammonium nitrate pH 6.3, room temperature; 2.02 Å; four protein molecules in the asymmetric unit.
For a further experiment, the target named is T1, SthCan2 (Sulfobacillus thermosulfidooxidans, UniProt A0A8I3AZU2).
T1 construct: synthetic gene in pEHisV5TEV, His tag cut by TEV, E. coli C43 (SeMet in B834 for the crystal); homodimer; residues 3-366 traced
T1 sequence (A0A8I3AZU2 1-366): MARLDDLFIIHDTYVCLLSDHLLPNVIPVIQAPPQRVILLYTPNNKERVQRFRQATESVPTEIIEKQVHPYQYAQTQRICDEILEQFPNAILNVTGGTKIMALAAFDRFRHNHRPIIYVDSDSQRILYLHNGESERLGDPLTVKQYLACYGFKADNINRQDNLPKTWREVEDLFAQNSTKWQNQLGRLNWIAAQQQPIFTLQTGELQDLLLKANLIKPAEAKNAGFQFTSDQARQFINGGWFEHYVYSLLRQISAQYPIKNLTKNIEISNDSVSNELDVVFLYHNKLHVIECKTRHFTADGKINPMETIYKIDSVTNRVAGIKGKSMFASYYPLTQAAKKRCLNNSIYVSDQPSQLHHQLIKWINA
As to the kind of experiment: X-ray crystal structure (co-crystal, […] A). It counts as binding. As to conditions: SeMet protein, protein:cA4 1:1 molar; one cA4 per dimer at the CARF dimer interface; allosteric activator of Mn2+-dependent nuclease; not degraded by the enzyme.

For “Can2 (CRISPR ancillary nuclease 2) from Sulfobacillus thermosulfidooxidans, selenomethionine labelled (enzyme)”, in experiment [1], the stoichiometry N worked out at 2.
With `Nc1ncnc2c1ncn2[C@@H]1O[C@@H]2COP(=O)(O)O[C@H]3[C@@H](O)[C@H](n4cnc5c(N)ncnc54)O[C@@H]3COP(=O)(O)O[C@H]3[C@@H](O)[C@H](n4cnc5c(N)ncnc54)O[C@@H]3COP(=O)(O)O[C@H]3[C@@H](O)[C@H](n4cnc5c(N)ncnc54)O[C@@H]3COP(=O)(O)O[C@H]2[C@H]1O` [cA4], the “X-ray crystal structure (co-crystal, 2.02 A)” value at SthCan2 is listed as “form two dimers each bound to a molecule of cA4”.

For orientation: stoichiometry N means the number of molecules, sites or subunits per partner or assembly.
